Results published in patent publication US20250075002A1 (BEIGENE SWITZERLAND, published 2025).

T1: human CD16B (NA2) on NK92mi cells (human, UniProt O75015 17-200)
T1 construct: also called NK92mi/CD16B (NA2); NK92mi/CD16B NA2
T1 chain: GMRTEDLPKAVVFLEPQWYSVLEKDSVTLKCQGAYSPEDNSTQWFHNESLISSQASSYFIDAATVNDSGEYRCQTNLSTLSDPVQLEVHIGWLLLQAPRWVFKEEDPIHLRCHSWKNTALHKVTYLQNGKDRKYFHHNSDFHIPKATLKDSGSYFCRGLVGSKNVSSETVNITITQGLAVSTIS

T2: human CD16B-His6 (NA1) (human, UniProt O75015 17-200)
T2 construct: Bought ECD fragment; also called CD16B NA1; human CD16B (NA1); not shown: six-histidine tag (His6)
T2 chain: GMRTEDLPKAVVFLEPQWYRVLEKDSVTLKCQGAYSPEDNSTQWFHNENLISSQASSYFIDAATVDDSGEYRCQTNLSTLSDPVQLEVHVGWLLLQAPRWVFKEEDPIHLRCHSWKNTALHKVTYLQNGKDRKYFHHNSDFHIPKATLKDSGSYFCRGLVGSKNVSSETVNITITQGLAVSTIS

T3: human CD16B-His6 (NA2) (human, UniProt O75015 17-200)
T3 construct: Bought ECD fragment; also called CD16B NA2; human CD16B (NA2); not shown: six-histidine tag (His6)
T3 chain: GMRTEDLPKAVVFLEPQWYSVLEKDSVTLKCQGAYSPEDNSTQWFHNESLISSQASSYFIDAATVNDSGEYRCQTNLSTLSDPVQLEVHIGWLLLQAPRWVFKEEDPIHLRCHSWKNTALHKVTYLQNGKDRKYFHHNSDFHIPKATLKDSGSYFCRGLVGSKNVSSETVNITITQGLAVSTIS

T4: human CD16B (NA1) on NK92mi cells (human, UniProt O75015 17-200)
T4 construct: also called NK92mi/CD16B (NA1); NK92mi/CD16B NA1
T4 chain: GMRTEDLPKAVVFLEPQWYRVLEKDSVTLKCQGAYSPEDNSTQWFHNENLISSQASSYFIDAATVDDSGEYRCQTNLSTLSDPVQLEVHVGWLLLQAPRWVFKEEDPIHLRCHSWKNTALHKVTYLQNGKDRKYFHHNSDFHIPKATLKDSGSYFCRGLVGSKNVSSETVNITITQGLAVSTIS


What was measured:
[1] = molecular target: T5, human CD16A (F158) on NK92mi cells (human, UniProt P08637 17-254); test: flow cytometry, biotinylated VHH-Fc on NK92mi/CD16A 158F cells, without human IgG1 (CB6)
T5 construct: NK92mi cells co-transduced with CD16A (F158) and FcRgamma cDNAs; also called NK92mi/CD16A F158

[2] = molecular target: T1, human CD16B (NA2) on NK92mi cells; test: flow cytometry on live NK92mi/CD16B NA2 cells, 300 nM VHH-Fc
human CD16A-His6 (F158) [3] = molecular target: T6, human CD16A-His6 (F158) (human, UniProt P08637 17-208); test: SPR; VHH-Fc captured on anti-human Fc surface; row head prints 'KD (nM)', koff/kon shows M
T6 construct: Bought ECD fragment; also called human CD16A (F158); not shown: six-histidine tag (His6)

human CD16A-His6 (V158) [4] = molecular target: T7, human CD16A-His6 (V158) (human, UniProt P08637 17-208); test: as above
T7 construct: Bought (Sino Biologics) ECD fragment; also called CD16A 158V; human CD16A (V158); not shown: six-histidine tag (His6)

human CD16A-His6 (F158) [5] = molecular target: T6, human CD16A-His6 (F158); test: SPR; VHH-Fc captured on anti-human Fc surface
human CD16A-His6 (V158) [6] = molecular target: T7, human CD16A-His6 (V158); test: SPR; VHH-Fc captured on anti-human Fc surface
human CD16B-His6 (NA1) = molecular target: T2, human CD16B-His6 (NA1); test: SPR; VHH-Fc captured on anti-human Fc surface; row head prints 'KD (nM)', taken as M like the rest of the table
human CD16B-His6 (NA2) = molecular target: T3, human CD16B-His6 (NA2); test: as above
cyno CD16-His6 [7] = molecular target: T8, cyno CD16-His6 (cyno, UniProt Q8SPW2 17-208); test: SPR; VHH-Fc captured on anti-human Fc surface; column head prints 'KD (nM)', koff/kon shows M
T8 construct: Bought ECD fragment; not shown: six-histidine tag (His6)
T8 sequence (Q8SPW2 17-208): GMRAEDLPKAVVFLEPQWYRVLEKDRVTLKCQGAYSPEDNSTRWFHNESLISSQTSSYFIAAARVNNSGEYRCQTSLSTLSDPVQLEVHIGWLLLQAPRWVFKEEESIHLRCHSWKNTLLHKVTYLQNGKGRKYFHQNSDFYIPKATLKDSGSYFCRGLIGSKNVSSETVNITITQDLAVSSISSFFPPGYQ

[8] = molecular target: T5, human CD16A (F158) on NK92mi cells; test: flow cytometry on NK92mi/CD16A 158F cells
cyno CD16-His6 [9] = molecular target: T8, cyno CD16-His6; test: SPR; VHH-Fc captured on anti-human Fc surface
[10] = molecular target: T5, human CD16A (F158) on NK92mi cells; test: flow cytometry, biotinylated VHH-Fc on NK92mi/CD16A 158F cells, with 10 mg/ml human IgG1 CB6 as competitor
[11] = molecular target: T4, human CD16B (NA1) on NK92mi cells; test: flow cytometry on live NK92mi/CD16B NA1 cells, 300 nM VHH-Fc

Binder	EC50 [1] [nM]	EMAX (MFI) [1] [MFI]	Binding signal at 300 nM (MFI) [2] [MFI]	Kd (human CD16A-His6 (F158) [3]) [nM]	Kd (human CD16A-His6 (V158) [4]) [nM]	koff (human CD16A-His6 (F158) [5]) [s⁻¹]	kon (human CD16A-His6 (F158) [5]) [M⁻¹ s⁻¹]	koff (human CD16A-His6 (V158) [6]) [s⁻¹]	kon (human CD16A-His6 (V158) [6]) [M⁻¹ s⁻¹]	Kd (human CD16B-His6 (NA1)) [nM]	Kd (human CD16B-His6 (NA2)) [nM]	Kd (cyno CD16-His6 [7]) [nM]	EC50 [8] [nM]	EMAX (MFI) [8] [MFI]	koff (cyno CD16-His6 [9]) [s⁻¹]	kon (cyno CD16-His6 [9]) [M⁻¹ s⁻¹]	EC50 [10] [nM]	EMAX (MFI) [10] [MFI]	Binding signal at 300 nM (MFI) [11] [MFI]
BG525P (VHH-Fc) (VHH, Humanized BG523P variant, VHH-Fc) EVQLVESGGGLVQPGGSLRLSCAASGRTFGSYAVGWFRQAPGRGREFVAAIRRSDGTTDYVDSVKGRFTISRDNAKNTVYLQMNSLKPEDTAVYYCAASDSDYEPLGDYWGQGTLVTVSSEPKSSDKTHTCPPCPAPPAAGPSVFLFPPKPKDTLMISRTPEVTCVVVDVSHEDPEVKFNWYVDGVEVHNAKTKPREEQYNSTYRVVSVLTVLHQDWLNGKEYKCKVSNKALAAPIEKTISKAKGQPREPQVYTLPPSREEMTKNQVSLTCLVKGFYPSDIAVEWESNGQPENNYKTTPPVLDSDGSFFLYSKLTVDKSRWQQGNVFSCSVMHEALHNHYTQKSLSLSPGK	1.65	23300	75	0.575	0.404	0.00012	210000	0.000103	255000	2310	5780	0.418	10.3	9710	0.000112	267000	6.83	21900	733
BG526P (VHH-Fc) (VHH, Humanized BG523P variant, VHH-Fc) EVQLVESGGGLVQPGGSLRLSCAASGRTFGSYAVGWFRQAPGKGREFVAAIRRSDATTDYVDSVKGRFTISRDNAKNTVYLQMNSLKPEDTAVYYCAASDSDYEPLGDYWGQGTLVTVSSEPKSSDKTHTCPPCPAPPAAGPSVFLFPPKPKDTLMISRTPEVTCVVVDVSHEDPEVKFNWYVDGVEVHNAKTKPREEQYNSTYRVVSVLTVLHQDWLNGKEYKCKVSNKALAAPIEKTISKAKGQPREPQVYTLPPSREEMTKNQVSLTCLVKGFYPSDIAVEWESNGQPENNYKTTPPVLDSDGSFFLYSKLTVDKSRWQQGNVFSCSVMHEALHNHYTQKSLSLSPGK	1.52	21600	52	0.64	0.425	0.000148	230000	0.000133	289000	2740	7640	0.49	9.1	9200	0.000147	301000	4.95	19600	473
